Test: soluble on expression in E. coli; label from the status in PepcDB or PDB records

| Sequence | soluble on expression in E. coli |
| --- | --- |
| MKRVFGILVCFMLLLSGTSVSFAQSEKTKQDKTEETTPKLAEQASSAIVIEQDTGKVLFDKNPNEKLPPASMTKIMTMLLIMEQVEKGKLKLTDKVRASEHAASMGGSQIFLEPGEEMTVNEMLKGIAIASGNDASVAVAEHIAGSEEGFVNMMNKKAKDLGLKNTHFQNPTGLPAKDHYSTANDMAIMAKELMKYPLIRKYTGKYEDYLREDTDKKFWLVNTNKLVRFYPGVDGVKTGFTTEAKYCLTASAEKNGMRVISVVMGAPTSKERNNQVTKLLDYAFGQYMTKKLYTRGEKIKTVQVGKGKKEKVDLVASDNVSLLMKKGENMDKVKQEVIAEKKVKAPIKKGDALGTLVIKKDKDVLLKQTIVAKEDVAAASWWELFKRSFGMFSTSK | not soluble |
| MGSDKIHHHHHHMYEHQTYEAILVRMLARVPETIDKREGSLIYDALAPGAAELAQAYAELVVNNNLSFADTASGEFLTRRAAEFGIKRKVATKAWRRGGFLDSNNALLNIPLGSRYSIGGLNYTAIEQISTGAYVLECETAGTAGNQQFGDLLPIAYVNSLARAELTEVLVPGEDEETDEALLSRYYETVNEPAFGGNMADYRQKVNAINGVGGTKVFPTWAGGGTVKCTIIASDWAKPSPELVNEVQSTMDPEENQGMGLGQAPIGHAVTIAGVDKVTVDVETTLTLAPGVTPGQVQSDVEAILDAYLLEQRKTWAAQTQIIIRMAQIDARMLTVQGVEDVTGTKLNGTEANFLLDEEEIPILGTVIINE | not soluble |
| MAHHHHHHMTKSYLNQDQQLRAQQVYTTHKHLKELSMATKEALTYHDKYLAAMEHVMSCLLNNSDALEDARKHLTQEAAVDIQPTFPTAGRLAAAYSNWRVSAELHMMRTELEFLKEVSTTGHEAVKKTKNAVHGLEKVAKKCAHVNSPEFEAKISSKSGKALEKLLHEQRETNTMMMSIENAIKKDMMSLATSWSAKLVTRGDALYTAFRSLGCRTVACFPTTDPTLSQGMPPPAAGYVLSQPSSASTSVPYSGGTAVGHGTPSTLPAAQSVECAAVPLSSAGEGAAAGVKLEFNLNEGKPVSR | soluble |
| MALREMIIDESDDIESYSDQSLCLDKAKELLALIKLPTGLLPLKDMTEVGYNKTKGFVWMRMRSKIEHTFREIGRRVLYDTEITAFVEDRRMRRLTGVKSKELMIWVPVNDIFIKRKILRRSPLLIPPACHEHLKFQHFNVRVDKLKEKRSNQTSLM | not soluble |
| MGSDKIHHHHHHLGPPTPLGLRAAPHNVTNLAQTPLAERLRSLVDTVQHNERTLRRFQSVELRLIGAQDFASFLDTLFGQLPREFSLAGVTLWLDDRAPMLRELLEPVALRALDQPRLRTSREGGLAAQGLCEDGRPWLGTPRELDDTVRRAFFGDAEQVPASAILLPLASGDTVGGYLWLGSDDAARFAQGMATDILERFASIVTASLDNVAHRERLKQLGMTDSLTGLANRRYFDERLREEVMRAVRYRMPVACLFIDIDSFKRINDTYGHQTGDRALAAVAACVRQQVRLGDTVARYGGEEFAALLQGDRADALTVAERVRLAVERLALQDDHGERIALTVSIGVAARMVSGTPTEAAMLGGAIIEEADRAMYQAKRNGRNRIEALVNASGDHTAG | not soluble |
| MGSDKIHHHHHHMSSEMNGTAPFQDQGATDVSLLEDIVRVTKLQPADEAYSITRRGVAALMAQLLEPGAEARKVSKAVLDDMIAEIDRKLSLQMDEILHHPQFQALESSWRSLHFLVDRTDFRENNRIEFLNATKEELLDDFEDAPEVAKSGLYKTVYSAEYGQFGGKPFGAIIGNYDFGPGAQDIKLLQSLAAVAGMAHAPFMAAASPQFFGCDDFTALPNLKDISSILEGPQYAKWQAFRESEDARYVGLALPRFLLRLPYGEATRPAKCFNYEEQVSDSHDRYCWGNAAFAFATRLTESFANFRWCANIIGPQGGGTVHDLPLHQYQAMGAIQTKIPTEVLISERREFELAEGGFIALTMRKGSDNAAFFSANSVQKPKFFGSSKEGKEAELNYKLGLQLPYMFIVSRLAHYLKVIQREHIGTWKERGDLENELNLWIRQYVSEMDNPMPGVRSRRPLRQAEVTVEEVPGEPGWYRVGLKVTPHFKYMGAYFTLSLVGKLDKE | not soluble |
| MSLKIKEITIWKEDLALTRPYTIAYETISAVENVFVLLETDNGITGIGAGSPAEDVTGETITATETALSLKLAPILQGKDIRSCFSLLKELNTALADTPAALAAADIALHDLAAKTMGLPLVDLLGRVHDRLPTSITIGIMPVKETLAEAEEYLGRGFSILKIKTGLNVEEDIERIIRLNETFKSKICMRVDANQGYEVEELHHFFKKTVGLVEFIEQPLKAEHLEKMGQLPQAIRRVSAADETLLGPRDAAQMLHAPRPFGIFNIKLMKCGGIAPGLEIANMAGHADIDLMWGCMDESIVSIAGALHAAFSSRATRYLDLDGSLDLARDIVNGGFILENGWMRTTDQPGLGVKRIEGHHHHHH | soluble |
| LPENGPEFKIEISLLKDQARVMIDTTGPSLFKRGYRTEKGGAPIKENMAAAIILLSNWFPDKPFVDPTCGSGTFCIEAAMIGMNIAPGFNRDFAFEEWPWVDEALVTRVRNEADEQADYDIQLDISGFDFDGRMVEIARKNAREVGLEDVVKLKQMRLQDFKTNKINGVLISNPPYGERLLDDKAVDILYNEMGETFAPLKTWSQFILTNDTDFEQKFGRKADKKRKLYNGSLKVDLYQFYGQRVKRVLR | not soluble |
| EDWNEIDPIKKKDLHHSNGEEKAQSMETLPPGKVRWPDFNQEAYVGGTMVRSGQDPYARNKFNQVESDKLRMDRAIPDTRHD | soluble |
| MSTNALQPKTIGGNNNILEVIRLKRADLRKSDRKVAELVLADPKRVINATIAEAAEWAEVSQPTVIRFCASIGCQGYQDFKLRLAQSLALGMSATHSVIDADDTPAKVSEKIFDYTITSLDWVRNHLDPVQVDRAVDALAKANRIEFFGFGASGIVARDAQQKFPLFGVPCGAETDAHQQIMVVSMLKPGDVAVVISNTGATLAIIETARRARESGCQVIGIVGSDGPLVEFCDIVLMVETLENTNIYTPTISRIAALTVVDILSTSVALRRGAEHVDLFTGMKRNLRYLRTSTET | not soluble |
| EITHRTKTRPVKVGPLTIGGNNEVVIQSMTTTKTHDVEATVAEINRLAEAGCQIVRVACPDERAANAIADIKKRISIPLVVDIHFDYKLALKAIEGGADKIRINPGNIGRREKVEAVVKAAKDKGIPI | not soluble |
| VTWKGSGQETVGAEPTLWAISDLHTGHLGNKPVAESLYPSSPDDWLIVAGDVAERTDEIRWSLDLLRRRFAKVIWVPGNHELWTTNRDPMQIFGRARYDYLVNMCDEMGVVTPEHPFPVWTERGGPATIVPMFLLYDYSFLPEGANSKAEGVAIAKERNVVATDEFLLSPEPYPTRDAWCHERVAATRARLEQLDWMQPTVLVNHFPLLRQPCDALFYPEFSLWCGTTKTADWHTRYNAVCSVYGHLHIPRTTWYDGVRFEEVSVGYPREWRRRKPYSWLRQVLPDPQYAPGYLNDFGGHFVITPEMRTQAAQFRERLRQRQSR | not soluble |
| MGSDKIHHHHHHMSKYESEVVVDGFHYLEGPRWYKDALWFVDFYTKGVYRVNDESVAEKIVHVEQQPSGLGWLPDGRMLIVSMKDRKVLRLEDNGELVVHADIWDHCEGHANDMVVAPNGNAYVGNFGFDLMGGADHKQTGLVLVKPDGNSQIVAEGLAFPNGMVISADEKTLIVNELFGNKISQFDINADGTLGEKRDFANFGDLGDEPNLGARIENANILPDGLALDSEGAVWIADTLNQRAVRISEGGEILDIVNTAPDGIFAVALGGQNGKTLFMCAAPDWDEASRTAETKGRMLSTQVKVGHAGTP | not soluble |
| MYKAVVFDFDGTVIDTEKHLFDLINTHLKIHQVAPISLEFYKQFIGGEATELHTYLEDAIGFKNKEKIYDQYYQTSVELPVNSTIIQLMQYLKKRHIPMAITTSSYKKNIYPIFKQLGLDTYIDVVVGRENVDSVQPNPEIYLKAVQELNYNPTTCLAIEDSVNGATAAMLAGLDVVVNTNIITKDQDFSTVQCVGQDMEFEDIKNSLFKE | not soluble |
| MGSDKIHHHHHHMSEENKIGTYQFVAEPFHVDFNGRLTMGVLGNHLLNCAGFHASDRGFGIATLNEDNYTWVLSRLAIELDEMPYQYEKFSVQTWVENVYRLFTDRNFAVIDKDGKKIGYARSVWAMINLNTRKPADLLALHGGSIVDYICDEPCPIEKPSRIKVTSNQPVATLTAKYSDIDINGHVNSIRYIEHILDLFPIELYQTKRIRRFEMAYVAESYFGDELSFFCDEVSENEFHVEVKKNGSEVVCRSKVIFE | not soluble |
| QAPEQRSIRDGILLLHELGALTDDTQADGSPQLTQIGKDLANIPVDPRMARMLVEANTLGCLHSVMVIVSALTIQDVRERPLEFQAQADQAHARFKDTT | not soluble |
| MTSGSLQFTVLRAVNPATDAQRESMLREPGFGKYHTDHMVSIDYAEGRGWHNARVIPYGPIELDPSAIVLHYAQEVFEGLKAYRWADGSIVSFRADANAARLRSSARRLAIPELPDAVFIESLRQLIAVDKAWVPGAGGEEALYLRPFIFATEPGLGVRPATQYRYLLIASPAGAYFKGGIAPVSVWVSTEYVRACPGGTGAAKFGGNYAASLLAQAEAAENGCDQVVWLDAVERRYIEEMGGMNIFFVLGSGGSARLVTPELSGSLLPGITRDSLLQLAIDAGFAVEERRIDIDEWQKKAAAGEITEVFACGTAAVITPVARVRHGASEFRIADGQPGEVTMALRDTLTGIQRGTFADTHGWMARLG | soluble |
| EAEAISCGSPPPILNGRISYYSTPIAVGTVIRYSCSGTFRLIGEKSLLCITKDKVDGTWDKPAPKCQYFNKYSSCPEPIVPGGYKIRGSTPYRHGDSVTFACKTNFSMNGNKSVWCQANNMWGPTRLPTCVSVFPLEQKLIS | soluble |
| MKSVFVESTIFEKYRDEYLSDEEYRLFQAELMLNPKLGDVIQGTGGLRKIRVASKGKGKRGGSRIIYYFLDEKRRFYLLTIYGKNEMSDLNANQRKQLMAFMEAWRNEQS | not soluble |
| MGSDKIHHHHHHMAIYLEMPKLIHEFPFRSLSNEGEVLTTPHWHKEIEILLITEGVVNLFINDKPMQLKKGEIVIIKGGDIHYILPSPGSERLVFQFDISFFNDLILLNEEKESLINLFSSIKKCSRDWSAKIRKSVFDILIDIYNEDLYKIEGYSYAIKGKMYNLIPILYRQIPREIEENTVEYEINSKEILERLNNIFKYVEKNYKQPIKLEDVSYEVGFSVYYFTKFFKKNTGKTFITFLNEYRLEKAKWILLNNNISIVDLVEEVGFGSTKTFYRVFKEKIGVSPLEFKKRYNSLEKKGSVSK | not soluble |
| NDPDADRFALAARKPDGGYKMLTGDQVGTLFGHYLLTHTEASGKLVGNTIVSSTLLKKIAESMGAEYFQTLTGFKWLTNVAMQKETKEKQFLFAYEEALGYTIGSQVWDKDGLSALVAFAQLTAELATQGKCVWDQLESIYRQHGIHIN | not soluble |
| MSLDKVTLLLNWYVYGEHAPFFYGKAKGLYAAEGIDLDIQEGRGSAVTIQAVAAGTVQFGYADVPTMIRAAAKGAPVVAVGVALQKSPMSVMGFSDKNIRKPEDIKGKIVATTPGDSMSQIWPLFLKQAGLRASDFQVVSGDAQTKLNAVANGRADLLLGYVMDQSMKLKDATGKDVRPIMFADYGIHMVSSGIITNKDLLKSNPDLVRRFMKATTAAFIGAEKDPGAAVDALLADLPKAGKRETLLEGFALTTPLYHTDETKGRPPFQVTDADMTSTVDLLIEYGGLEASAKDNTKSFYTRDYLPAAGNEGHHHHHH | soluble |
| MKLALLGRQALMGVMAVALVAGMSAKSFADEGLLNKVKERGTLLVGLEGTYPPFSFQGEDGKLTGFEVDFAEALAKHLGVKASLKPTKWDGMLASLDAKRIDVVINQVTISDVRKKKYDFSTPYTVSGIQALVKKGNEGTIKTAADLQGKKVGVGLGTNYEEWLRQHVQGVDIRTYDDDPTKYQDLRVGRIDAILVDRLAALDLVKKTKGTLAVTGDAFSRQESGVALRKGNEDLLKAVDNAIAEMQKDGTLKALSEKWFGADVTQ | not soluble |

From the DeepSol protein solubility set
